Laboratory results: US20250376532A1

Molecular target: rDR5-IgG4-Fc (UniProt O14763)
Test: BLI

Q: How did the Kd turn out when AMG655 was run?
A: 0.102 nM
